Values quoted from earlier work in PMC4980809.

Biological target: titin ZR7 (Homo sapiens) (UniProt Q8WZ42)
Sequence (Q8WZ42 692-740): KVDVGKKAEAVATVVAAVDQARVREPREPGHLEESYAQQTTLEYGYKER

Sequence of alpha-actinin-2 EF3/4 domain (P35609 823-894): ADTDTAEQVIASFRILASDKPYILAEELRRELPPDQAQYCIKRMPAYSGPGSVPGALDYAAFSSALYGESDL

- Kd: 380 nM
Substance: alpha-actinin-2 EF3/4 domain (from UniProt P35609)
